B1: G9.2-17 Fab (Fab, V domains shown)
VH: EVQLVESGGGLVQPGGSLRLSCAASGFTVSSSSIHWVRQAPGKGLEWVAYISSSSGYTYYADSVKGRFTISADTSKNTAYLQMNSLRAEDTAVYYCARYWSYPSWWPYRGMDYWGQGTLVTVSS
VL: DIQMTQSPSSLSASVGDRVTITCRASQSVSSAVAWYQQKPGKAPKLLIYSASSLYSGVPSRFSGSRSGTDFTLTISSLQPEDFATYYCQQSSTDPITFGQGTKVEIKR
B2: G9.2-15 Fab (Fab, V domains shown)
VH: EVQLVESGGGLVQPGGSLRLSCAASGFTVSSSSIHWVRQAPGKGLEWVASIYSSSGYTSYADSVKGRFTISADTSKNTAYLQMNSLRAEDTAVYYCARNVENYPYWAWPWGYYGAIDYWGQGTLVTVSS
VL: B1 VL with T93W, D94G, P95L
B3: G9.2-17mut6 Fab (Fab, V domains shown)
VH: B1 VH with W106S
VL: B1 VL
B4: G9.1-11 Fab (Fab, V domains shown)
VH: EVQLVESGGGLVQPGGSLRLSCAASGFTVYSSSIHWVRQAPGKGLEWVASIYSYYGYTSYADSVKGRFTISADTSKNTAYLQMNSLRAEDTAVYYCARSTEGYDRWGYYSSYWSSGLDYWGQGTLVTVSS
VL: B1 VL with S91T, S92Y, T93W, D94G, P95L
B5: G9.1-6 Fab (Fab, V domains shown)
VH: EVQLVESGGGLVQPGGSLRLSCAASGFTLSSSSIHWVRQAPGKGLEWVASIYSSYGSTSYADSVKGRFTISADTSKNTAYLQMNSLRAEDTAVYYCARSSHWYMYWSYWGWYIGMDYWGQGTLVTVSS
VL: B1 VL with S91Y, S92H, T93S, D94S, P95L, I96F
B6: G9.1-5 Fab (Fab, V domains shown)
VH: EVQLVESGGGLVQPGGSLRLSCAASGFTIYYSSIHWVRQAPGKGLEWVASISSSYGSTYYADSVKGRFTISADTSKNTAYLQMNSLRAEDTAVYYCARSVSWYPYYYYYGYGSGLDYWGQGTLVTVSS
VL: DIQMTQSPSSLSASVGDRVTITCRASQSVSSAVAWYQQKPGKAPKLLIYSASSLYSGVPSRFSGSRSGTDFTLTISSLQPEDFATYYCQQYYGWFYPVTFGQGTKVEIKR
B7: G9.1-8 Fab (Fab, V domains shown)
VH: EVQLVESGGGLVQPGGSLRLSCAASGFTVSSSSIHWVRQAPGKGLEWVAYIYPYSGYTSYADSVKGRFTISADTSKNTAYLQMNSLRAEDTAVYYCARYSTYSWGGIGKWVWGMDYWGQGTLVTVSS
VL: B6 VL with Y91S, G93Y, W94D, F95S, Y96N, V98I
B8: G9.2-1 Fab (Fab, V domains shown)
VH: EVQLVESGGGLVQPGGSLRLSCAASGFTLYSSSIHWVRQAPGKGLEWVASIYSSSGYTYYADSVKGRFTISADTSKNTAYLQMNSLRAEDTAVYYCARTYTWKSSWSYQTGYGLDYWGQGTLVTVSS
VL: DIQMTQSPSSLSASVGDRVTITCRASQSVSSAVAWYQQKPGKAPKLLIYSASSLYSGVPSRFSGSRSGTDFTLTISSLQPEDFATYYCQQYKSKYPFTFGQGTKVEIKR
B9: G9.2-3 Fab (Fab, V domains shown)
VH: EVQLVESGGGLVQPGGSLRLSCAASGFTFSSSSIHWVRQAPGKGLEWVASISSSSGSTSYADSVKGRFTISADTSKNTAYLQMNSLRAEDTAVYYCARPAYSYPYYYFHYGAMDYWGQGTLVTVSS
VL: B1 VL with T93S, D94S, P95L

Where a chain is given by its changes, count along the chain named.

The first assay deals with T1, human Galectin-9 CRD2 (residues 218-355), biotinylated (UniProt O00182 218-355, biotinylated in vitro with BirA (Avitag)). The assay is described as follows: SPR. (In general: Surface plasmon resonance follows binding to a sensor surface in real time, without labels.)
T1 sequence (O00182 218-355): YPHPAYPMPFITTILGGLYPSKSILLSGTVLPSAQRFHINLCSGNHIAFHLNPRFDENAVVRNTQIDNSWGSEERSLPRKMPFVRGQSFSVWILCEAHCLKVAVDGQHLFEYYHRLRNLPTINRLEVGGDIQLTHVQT
B1 came in with a Kd of 0.232 nM.
Molecule B2 displayed a Kd of 4.8 nM.

The target of the next assay is T1, human Galectin-9 CRD2 (residues …). The assay is described as follows: SPR. The source holds these as a separate data set.
Regarding B1, the Kd came out at 0.219 nM.
In turn, B3 returned a Kd of 0.154 nM.

The target of another assay is human Galectin-9 CRD1 (residues 1-148), biotinylated (UniProt O00182 1-148, biotinylated in vitro with BirA (Avitag)). The experiment in a line: bead-based binding assay; apparent Kd; plots and legend state CRD1.
Chain of human Galectin-9 CRD1 (residues 1-148), biotinylated (O00182 1-148): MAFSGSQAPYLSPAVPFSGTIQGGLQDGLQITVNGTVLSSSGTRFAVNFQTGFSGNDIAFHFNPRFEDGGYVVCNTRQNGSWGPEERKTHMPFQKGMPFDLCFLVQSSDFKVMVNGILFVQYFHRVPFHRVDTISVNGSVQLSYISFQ
Consider B4, for which the Kd came to 20.4 nM.
The same measure, in the same setting: then B5, with 29.2 nM; and B6, with 30.4 nM.
Consider B7, for which the Kd was found to be 9.8 nM.

In another assay the target is T1, human Galectin-9 CRD2 (residues …). The experiment in a line: bead-based binding assay; apparent Kd.
For B8, the Kd is 4170 nM.
Regarding B1, the Kd worked out at 0.76 nM.
For the molecule B2, the Kd was found to be 0.71 nM.
With B9, the Kd was 1380 nM.

For the origin of these results see patent US20220340666A1 (published 2022).
